Measurements: patent US20240025969A1, “NPC1 MONOBODIES AND MONOBODY CONJUGATES THEREOF” (NEW YORK UNIVERSITY, priority 2020, published 2024)
“Also recorded” adds a separate entry of the source.

Key:
ERK = ERK hyperactivation in NPC1 knockdown cells, EGFR inhibition; type: cell-based; settings: short-term EGFR inhibition
HCA7 = assay: Monobody uptake in wild-type KRas CRC cells; type: cell-based; settings: macropinocytosis negative
Excerpt: (§1) FIGS. 10A-10B show monobody selectivity in colorectal DLD-1 and HCT-116 cancer cells (CRC).
(§2) Confirmation that uptake is dependent on macropinocytosis was confirmed in CRC cell lines. […] It was also observed that upon NPC1 knockdown in vitro, there is ERK hyperactivation (FIG. 13A). This observation was confirmed using the N34 monobody in vivo (FIG. 13B).

HCT-116 cell = HCT-116 cell proliferation, Syto60 assay; type: cell-based; settings: Syto60 assay after 3 days of treatment, n=3
Procedure: Proliferation was analyzed by Syto60 assay after 3 days of treatment. n=3

[1] = system: Mutant Ras PDAC MIA PaCa-2 cells; assay: Split GFP assay for endosomal escape of GFP11; type: cell-based; settings: MIA PaCa-2 cells expressing GFP1-10; 600 mM GFP11 with 1 mM monobody for 24 hrs
Procedure: Mutant Ras PDAC MIA PaCa-2 cells stably expressing cytoplasmic GFP1-10 were treated with 600 mM GFP11 with or without 1 mM of the N23 or N34 NCP1 monobody for 24 hrs.
A split GFP assay was developed to measure endosomal escape of proteins. Mutant Ras PDAC MIA PaCa-2 cells were stably expressed with GFP1-10, which is missing the 11β domain needed for fluorescence, making endosomal escape of GFP110 necessary for a positive signal. NPC1 targeting and control monobodies were co-delivered with the free GFP110 domain.

PDAC MIA PaCa3 cells = assay: Calcein endosomal release assay, with or without nanoparticle delivery vehicle; type: cell-based; settings: for endosomal release of calcein: calcein alone (PBS) or packaged in pegylated nanoparticle delivery vehicles (90 nm Nano), both conditions; for calcein fluorescence (endosomal release of calcein): co-delivery with calcein (FIG. 17)
Excerpt: Calcein is a membrane impermeable, fluid phase uptake marker that is semi-quenched when in close proximity with other calcein molecules in vesicular compartments, but with intracellular release and molecule diffusion, dequenching causes an increase in cellular fluorescence.
FIGS. 18A-18B show an NCP1 monobody mediated increase in endosomal calcein release that was further improved in the presence of a nanoparticle delivery vehicle. FIG. 18A is a panel of immunocytochemical images of PDAC MIA PaCa3 cells treated with calcein alone (PBS) or packaged in a pegylated nanoparticle delivery vehicles (90 nm Nano) (images of top row). […] FIG. 18B is a graph quantifying calcein fluorescence in each of the tested conditions.
Endosome escape was again observed in a small molecule assay (FIG. 17). Calcein is a membrane impermeable, fluid phase uptake marker that is semi-quenched when in close proximity with other calcein molecules in vesicular compartments, but with intracellular release and molecule diffusion, dequenching causes an increase in cellular fluorescence. […] The NPC1 targeting monobodies have been established to induce small molecule, biologic, and nanoparticle escape.

NPC1 = biological target: T1, NPC1 (Homo sapiens, UniProt O15118); assay: Screen for NPC1-inhibitory monobodies: intracellular cholesterol trafficking, filipin; type: cell-based; settings: for inhibition of NPC1 by endosomal accumulation of cholesterol: DLD1 cells (Ras mutation, colon), cholesterol measured by filipin; for cholesterol entrapment / vesicle disruption: DLD1 cells, preliminary data; for cholesterol entrapment: filipin
T1 construct: endogenous in cells; host or cells: DLD-1 (mutant KRas colorectal cancer cells)
T1 sequence (O15118 23-1278): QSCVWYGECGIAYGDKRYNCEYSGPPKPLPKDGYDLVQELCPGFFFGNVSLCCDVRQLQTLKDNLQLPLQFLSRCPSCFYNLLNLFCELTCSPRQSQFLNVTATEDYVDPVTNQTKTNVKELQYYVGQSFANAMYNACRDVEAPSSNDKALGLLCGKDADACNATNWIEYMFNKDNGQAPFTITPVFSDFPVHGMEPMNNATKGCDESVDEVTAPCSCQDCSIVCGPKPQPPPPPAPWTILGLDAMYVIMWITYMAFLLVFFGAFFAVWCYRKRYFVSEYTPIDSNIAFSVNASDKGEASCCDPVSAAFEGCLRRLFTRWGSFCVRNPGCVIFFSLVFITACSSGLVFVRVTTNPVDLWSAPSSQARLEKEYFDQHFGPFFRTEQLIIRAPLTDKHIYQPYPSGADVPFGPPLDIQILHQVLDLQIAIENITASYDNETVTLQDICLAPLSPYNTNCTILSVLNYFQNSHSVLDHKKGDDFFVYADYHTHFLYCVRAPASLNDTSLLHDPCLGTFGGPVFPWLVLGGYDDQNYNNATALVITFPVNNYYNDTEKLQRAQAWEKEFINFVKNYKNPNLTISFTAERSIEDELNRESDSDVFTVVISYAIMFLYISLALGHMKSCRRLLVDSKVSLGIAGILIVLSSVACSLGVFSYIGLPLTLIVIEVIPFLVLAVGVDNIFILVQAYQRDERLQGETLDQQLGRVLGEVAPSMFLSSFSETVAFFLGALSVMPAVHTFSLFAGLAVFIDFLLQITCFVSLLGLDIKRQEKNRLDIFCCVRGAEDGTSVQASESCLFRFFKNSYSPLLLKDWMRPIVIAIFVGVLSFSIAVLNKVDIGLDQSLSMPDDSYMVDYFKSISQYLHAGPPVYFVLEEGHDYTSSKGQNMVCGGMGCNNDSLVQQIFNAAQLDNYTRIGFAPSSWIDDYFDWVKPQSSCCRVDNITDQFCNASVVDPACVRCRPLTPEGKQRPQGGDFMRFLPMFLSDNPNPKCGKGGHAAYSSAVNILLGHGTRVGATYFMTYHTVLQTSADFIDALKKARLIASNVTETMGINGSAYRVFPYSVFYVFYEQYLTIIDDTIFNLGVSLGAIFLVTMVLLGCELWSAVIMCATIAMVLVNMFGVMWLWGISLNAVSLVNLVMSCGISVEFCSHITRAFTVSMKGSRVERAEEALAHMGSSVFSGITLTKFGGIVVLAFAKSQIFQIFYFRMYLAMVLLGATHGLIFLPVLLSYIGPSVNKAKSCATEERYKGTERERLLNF
Excerpt: FIG. 7A is a graph showing the effect of monobody clones on intracellular cholesterol trafficking. FIG. 7B are representative cell images from FIG. 7A. FIG. 7C is a heat map representation of cholesterol localization from FIG. 7B.
A major benefit of monobodies over antibodies is the lower cost in manufacturing. However, if monobodies need to be re-folded or aggregate during production, the cost of manufacturing can exceed that of antibodies. […] Utilizing both the imaging-based and biochemical approaches, it was confirmed that the monobodies described herein inhibit NPC1 in cell culture. […] FIG. 7B DLD1 cells (Ras mutation, colon) were treated with the top monobody hits and cholesterol was measured by filipin.

HCT-116 [2] = assay: LC3B accumulation in HCT-116 cells; type: cell-based
Excerpt: as §1, §2

HeLa cells = assay: LC3B accumulation in macropinocytosis negative wild-type KRas HeLa cells; type: cell-based
Procedure: (§3) FIGS. 8A-8B show mutant KRas-dependent effects of NPC1-targeting monobodies. N23 and N34 clones were analyzed for effect on macropinocytosis negative wild-type KRas HeLa cells (FIG. 8A) versus macropinocytosis-positive mutant KRas […] cells (FIG. 8B). FN is a non-targeting monobody control. Arrows indicate LC3B accumulation.

HeLa KRasV12 cells = assay: LC3B accumulation in macropinocytosis-positive mutant KRas HeLa cells; type: cell-based
Procedure: as §3

DLD-1 = assay: Monobody uptake in mutant KRas CRC cells DLD-1; type: cell-based; settings: mutant KRas CRC cells DLD-1, macropinocytosis positive
Excerpt: as §1, §2

HCT-116 [3] = assay: Monobody uptake in mutant KRas CRC cells HCT-116; type: cell-based; settings: mutant KRas CRC cells HCT-116, macropinocytosis positive
Excerpt: as §1, §2

xenografts = assay: Intratumor injection of monobody into xenografts; type: in vivo
Procedure: FIG. 11 show the in vivo cholesterol alterations with NPC1-targeting monobody (N34) versus non-targeting control (FN).
Monobody (1 uM; 50ul volume) was intratumorally injected two hours prior to tumor extraction.
Monobody (1 uM; 50ul volume) was intratumorally injected two hours prior to tumor extraction. Images were taken of serial sections from FIG. 13B.
as §2

[4] = N34-positive vs N34-negative areas, 1 uM, 50ul intratumorally, 2 hours post-injection
[5] = N34-positive vs N34-negative tumor, 1 uM, 50ul intratumorally two hours prior to tumor extraction

COc1cc2ncnc(Nc3ccc(F)c(Cl)c3)c2cc1NC(=O)/C=C/CN1CCCCC1 [dacomitinib]
ERK hyper-activation (ERK): blocked ERK hyper-activation

B1: N34: NPC1-targeting monobody clone N34 (SEQ ID NO: 40) (protein)
chain: VSSVPTKLEVVAATPTSLLISWDAPAVTVSYYVITYGETGGHYWHWQTFKVPGSKSTATISGLKPGVDYTITVYAYYGQMRYYSPISINYRT
uptake of monobody (HCA7): fail to uptake
CRC cell proliferation (HCT-116 cell): growth inhibitory effect
fluorescence (endosomal escape of GFP11) [1]: observed
endosomal release of calcein (PDAC MIA PaCa3 cells): enhanced endosomal release of calcein
calcein fluorescence (endosomal release of calcein) (PDAC MIA PaCa3 cells): increasing calcein fluorescence
inhibition of NPC1 by endosomal accumulation of cholesterol (NPC1): greatest inhibition of NPC1
cholesterol entrapment (NPC1): improved cholesterol entrapment
vesicle disruption (NPC1): induce vesicle disruption
accumulation of LC3B (HCT-116 [2]): dose-dependent accumulation of LC3B
LC3B accumulation (HeLa cells): did not induce LC3B accumulation
LC3B accumulation (HeLa KRasV12 cells): did show an effect
uptake of monobody (DLD-1): efficiently internalize
uptake of monobody (HCT-116 [3]): efficiently internalize
LC3B accumulation in xenograft (xenografts; [4]): robust cholesterol and LC3B accumulation; also recorded: induces cholesterol and LC3B accumulation
cholesterol accumulation in xenograft (xenografts; [4]): robust cholesterol and LC3B accumulation; also recorded: induces cholesterol and LC3B accumulation
EGFR phosphorylation (activation) in tumor (xenografts; [5]): EGFR activation was seen; also recorded: induces EGFR phosphorylation
ERK phosphorylation (hyperactivation) in tumor (xenografts; [5]): confirmed; also recorded: induces ERK phosphorylation
cholesterol accumulation in tumor cells (xenografts; N34 positive tumor cells compared to non-targeting control monobody (FN)): displayed cholesterol accumulation
uptake in CK8-positive tumor cells (xenografts; intratumor injection into xenografts): showed uptake

B2: N23: NPC1-targeting monobody clone N23 (SEQ ID NO: 36) (protein)
chain: VSSVPTKLEVVAATPTSLLISWDASSSSVSYYRITYGETGGPFWHYQTFTVPGSKSTATISGLKPGVDYTITVYTYSSSMHFSSSPISINYRT
CRC cell proliferation (HCT-116 cell): no significant inhibition
fluorescence (endosomal escape of GFP11) [1]: observed
endosomal release of calcein (PDAC MIA PaCa3 cells): enhanced endosomal release of calcein
calcein fluorescence (endosomal release of calcein) (PDAC MIA PaCa3 cells): increasing calcein fluorescence
inhibition of NPC1 by endosomal accumulation of cholesterol (NPC1): greatest inhibition of NPC1
cholesterol entrapment (NPC1): improved cholesterol entrapment
vesicle disruption (NPC1): induce vesicle disruption
LC3B accumulation (HeLa cells): did not induce LC3B accumulation
LC3B accumulation (HeLa KRasV12 cells): did show an effect
